Legend:
[1] = test system: interferon-stimulated genes IFIH1, ISG20, CXCL9, and CD74; assay: IFNG induction of interferon-stimulated genes, RT-qPCR in MB135 cells with doxycycline-inducible transgenes; type: cell-based, human; conditions: MB135 cells, doxycycline-induced transgene, continuous protocol, IFNG 16 h
Protocol: All myoblast experiments were conducted in immortalized MB135 or MB200 myoblast cell lines (isolated from a control or FSHD2 subject, respectively cultured in Ham's F-10 Nutrient Mix (Gibco) supplemented with 15% fetal bovine serum (Hyclone), 100 U/100 μg/ml penicillin/streptomycin (Gibco), 1 μM dexamethasone (Sigma), and 10 ng/ml recombinant human basic fibroblast growth factor (PeproTech). To differentiate the myoblasts to myotubes, media was changed to DMEM supplemented with 10 μg/ml insulin (Sigma) and 10 μg/ml transferrin (Sigma). Cell lines containing doxycycline-inducible transgenes were additionally cultured with 2 μg/mL puromycin (Sigma). Transgenes were induced with 1 μg/mL of doxycycline (Sigma) for 4 hours prior to other treatments for a total of 20 hrs. The Kitra-SRS cells (RRID:CVCL_YI69) were provided by Dr. H. Otani and Osaka University (Nakai et al., 2019) and were cultured in DMEM supplemented with 10% fetal bovine serum (Hyclone) and 100 U/100 μg/ml penicillin/streptomycin (Gibco). Biological replicates consisted of independent but parallel experiments, such as simultaneously stimulating three cell culture plates with IFNγ. Technical replicates consisted of repeat measurements of the same biological sample, such as loading the same biological sample in triplicate for analysis by RT-qPCR.
Myoblasts were transfected with either (final concentrations) 10 μM 2′,3′-cGAMP (Sigma Aldrich), 2 μg/mL poly(I:C) (Invitrogen), or 1 μg/mL 3′ppp-dsRNA RIG-I ligand (Dan Stetson Lab, UW) using Lipofectamine 2000 according to manufacturer's protocol, or were stimulated with 1000U IFNβ (PeproTech) or 200 ng/ml IFNγ (R+D Systems) by addition directly to cell culture medium. After 16 hours of immune stimulation, RNA was collected from cells using the NucleoSpin RNA Kit (Macherey-Nagel) according to manufacturer's instructions. RNA samples were quantified by nanodrop and 1 μg of RNA per sample was treated with DNase I Amplification Grade (Thermo Fisher), and then synthesized into cDNA using the Superscript IV First-Strand Synthesis System, including oligo dT primers (Invitrogen). qPCR was run in 384-well plates on an Applied Biosystems QuantStudio 6 Flex Real-Time PCR System (ABI) and analyzed in Microsoft Excel.

[2] = test system: proteins that co-immunoprecipitated with DUX4-CTD constructs expressed in MB135 myoblasts; assay: LC-MS of proteins co-immunoprecipitated with DUX4-CTD (Table 1) and western validation; type: binding, human; parameters: key to 4. mL1dL2 + Dox + IFNG / 4. + IFNG mix / 4. longCTD + Dox + IFNG / 3. + IFNg + Dox longCTD / 3. + Dox longCTD / 3. + IFNG longCTD: peptide-spectrum matches (PSMs) per protein; conditions: kind of count not given; for 4. mL1dL2 + Dox + IFNG: LC-MS value per protein co-immunoprecipitated with DUX4-CTD construct mL1dL2 in MB135 myoblasts; for 4. + IFNG mix: LC-MS value per protein co-immunoprecipitated from MB135 myoblasts, + IFNG mix sample (no Dox)
Outline: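 Two independent experiments compared uninduced, doxycycline and doxycycline+IFNG MB135iDUX4-CTD (plus MB135iDUX4mL1dL2) myoblasts. Anti-FLAG pulldowns (3 h, 4 °C) were eluted in LDS buffer for western validation or with FLAG peptide for trypsin digestion and Orbitrap LC-MS; hits needed ≥2 PSMs in both experiments, ranked by total PSMs.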

Molecule | 4. mL1dL2 + Dox + IFNG [2] | further results
iNLS-CTD: 3×FLAG tag nls construct encoding terminal 86 amino acids of DUX4 (aa 339-424), SEQ ID NOS: 12 and 13 (protein, 3xFLAG tag and NLS) MDYKDHDGDYKDHDIDYKDDDDKPKKKRKVNASASARQGQMQGIPAPSQALQEPAPWSALPCGLLLDELLASPEFLQQAQPLLETEAPGELEASEEAASLEAPLSEEEYRALLEEL |  | suppression of IFNG induction of ISGs (IFIH1, ISG20, CXCL9, CD74) [1]: suppresses a portion of the IFNG-induced ISG genes, CXCL9 and CD74; suppression of IFNG induction of ISGs (IFIH1, ISG20, CXCL9, CD74) ([1]; listed as iDUX4aa339-424): maintained ISG suppression, though not as strongly on the IFIH1 and ISG20 genes; suppression of IFNG induction of ISGs (IFIH1, ISG20, CXCL9, CD74) ([1]; listed as iNLS CTD): suppresses two of the four IFNG-induced
CAPRIN1 (protein) PSATSHSGSGSKSSGPPPPSGSSGSEAAAGAGAAAPASQHPATGTGAVQTEAMKQILGVIDKKLRNLEKKKGKLDDYQERMNKGERLNQDQLDAVSKYQEVTNNLEFAKELQRSFMALSQDIQKTIKKTARREQLMREEAEQKRLKTVLELQYVLDKLGDDEVRTDLKQGLNGVPILSEEELSLLDEFYKLVDPERDMSLRLNEQYEHASIHLWDLLEGKEKPVCGTTYKVLKEIVERVFQSNYFDSTHNHQNGLCEEEEAASAPAVEDQVPEAEPEPAEEYTEQSEVESTEYVNRQFMAETQFTSGEKEQVDEWTVETVEVVNSLQQQPQAASPSVPEPHSLTPVAQADPLVRRQRVQDLMAQMQGPYNFIQDSMLDFENQTLDPAIVSAQPMNPTQNMDMPQLVCPPVHSESRLAQPNQVPVQPEATQVPLVSSTSEGYTASQPLYQPSHATEQRPQKEPIDQIQATISLNTDQTTASSSLPAASQPQVFQAGTSKPLHSSGINVNAAPFQSMQTVFNMNAPVPPVNEPETLKQQNQYQASYNQSFSSQPHQVEQTELQQEQLQTVVGTYHGSPDQSHQVTGNHQQPPQQNTGFPRSNQPYYNSRGVSRGGSRGARGLMNGYRGPANGFRGGYDGYRPSFSNTPNSGYTQSQFSAPRDYSGYQRDGYQQNFKRGSGQSGPRGAPRGRGGPPRPNRGMPQMNTQQVN | 1 | 
KANK2 (protein) MAQVLHVPAPFPGTPGPASPPAFPAKDPDPPYSVETPYGYRLDLDFLKYVDDIEKGHTLRRVAVQRRPRLSSLPRGPGSWWTSTESLCSNASGDSRHSAYSYCGRGFYPQYGALETRGGFNPRVERTLLDARRRLEDQAATPTGLGSLTPSAAGSTASLVGVGLPPPTPRSSGLSTPVPPSAGHLAHVREQMAGALRKLRQLEEQVKLIPVLQVKLSVLQEEKRQLTVQLKSQKFLGHPTAGRGRSELCLDLPDPPEDPVALETRSVGTWVRERDLGMPDGEAALAAKVAVLETQLKKALQELQAAQARQADPQPQAWPPPDSPVRVDTVRVVEGPREVEVVASTAAGAPAQRAQSLEPYGTGLRALAMPGRPESPPVFRSQEVVETMCPVPAAATSNVHMVKKISITERSCDGAAGLPEVPAESSSSPPGSEVASLTQPEKSTGRVPTQEPTHREPTRQAASQESEEAGGTGGPPAGVRSIMKRKEEVADPTAHRRSLQFVGVNGGYESSSEDSSTAENISDNDSTENEAPEPRERVPSVAEAPQLRPAGTAAAKTSRQECQLSRESQHIPTAEGASGSNTEEEIRMELSPDLISACLALEKYLDNPNALTERELKVAYTTVLQEWLRLACRSDAHPELVRRHLVTFRAMSARLLDYVVNIADSNGNTALHYSVSHANFPVVQQLLDSGVCKVDKQNRAGYSPIMLTALATLKTQDDIETVLQLFRLGNINAKASQAGQTALMLAVSHGRVDVVKALLACEADVNVQDDDGSTALMCACEHGHKEIAGLLLAVPSCDISLTDRDGSTALMVALDAGQSEIASMLYSRMNIKCSFAPMSDDESPTSSSAEE | 1 | 
NAP1L1 (protein) ADIDNKEQSELDQDLDDVEEVEEEETGEETKLKARQLTVQMMQNPQILAALQERLDGLVETPTGYIESLPRVVKRRVNALKNLQVKCAQIEAKFYEEVHDLERKYAVLYQPLFDKRFEIINAIYEPTEEECEWKPDEEDEISEELKEKAKIEDEKKDEEKEDPKGIPEFWLTVFKNVDLLSDMVQEHDEPILKHLKDIKVKFSDAGQPMSFVLEFHFEPNEYFTNEVLTKTYRMRSEPDDSDPFSFDGPEIMGCTGCQIDWKKGKNVTLKTIKKKQKHKGRGTVRTVTKTVSNDSFFNFFAPPEVPESGDLDDDAEAILAADFEIGHFLRERIIPRSVLYFTGEAIEDDDDDYDEEGEEADEEGEEEGDEENDPDYDPKKDQNPAEC | 2 | 
NONO (protein, UniProt Q15233 1-471, looked up) Non-POU domain-containing …: MQSNKTFNLEKQNHTPRKHHQHHHQQQHHQQQQQQPPPPPIPANGQQASSQNEGLTIDLKNFRKPGEKTFTQRSRLFVGNLPPDITEEEMRKLFEKYGKAGEVFIHKDKGFGFIRLETRTLAEIAKVELDNMPLRGKQLRVRFACHSASLTVRNLPQYVSNELLEEAFSVFGQVERAVVIVDDRGRPSGKGIVEFSGKPAARKALDRCSEGSFLLTTFPRPVTVEPMDQLDDEEGLPEKLVIKNQQFHKEREQPPRFAQPGSFEYEYAMRWKALIEMEKQQQDQVDRNIKEAREKLEMEMEAARHEHQVMLMRQDLMRRQEELRRMEELHNQEVQKRKQLELRQEEERRRREEEMRRQQEEMMRRQQEGFKGTFPDAREQEIRMGQMAMGGAMGINNRGAMPPAPVPAGTPAPPGPATMMPDGTLGLTPPTTERFGQAATMEGIGAIGGTPPAFNRAAPGAEFAPNKRRRY |  | 4. + IFNG mix [2]: 1
G3BP2 (protein) VMEKPSPLLVGREFVRQYYTLLNKAPEYLHRFYGRNSSYVHGGVDASGKPQEAVYGQNDIHHKVLSLNFSECHTKIRHVDAHATLSDGVVVQVMGLLSNSGQPERKFMQTFVLAPEGSVPNKFYVHNDMFRYEDEVFGDSEPELDEESEDEVEEEQEERQPSPEPVQENANSGYYEAHPVTNGIEEPLEESSHEPEPEPESETKTEELKPQVEEKNLEELEEKSTTPPPAEPVSLPQEPPKAFSWASVTSKNLPPSGTVSSSGIPPHVKAPVSQPRVEAKPEVQSQPPRVREQRPRERPGFPPRGPRPGRGDMEQNDSDNRRIIRYPDSHQLFVGNLPHDIDENELKEFFMSFGNVVELRINTKGVGGKLPNFGFVVFDDSEPVQRILIAKPIMFRGEVRLNVEEKKTRAARERETRGGGDDRRDIRRNDRGPGGPRGIVGGGMMRDRDGRGPPPRGGMAQKLGSGRGTGQMEGRFTGQRR | 1 | 
DDX3X (protein) SHVAVENALGLDQQFAGLDLNSSDNQSGGSTASKGRYIPPHLRNREATKGFYDKDSSGWSSSKDKDAYSSFGSRSDSRGKSSFFSDRGSGSRGRFDDRGRSDYDGIGSRGDRSGFGKFERGGNSRWCDKSDEDDWSKPLPPSERLEQELFSGGNTGINFEKYDDIPVEATGNNCPPHIESFSDVEMGEIIMGNIELTRYTRPTPVQKHAIPIIKEKRDLMACAQTGSGKTAAFLLPILSQIYSDGPGEALRAMKENGRYGRRKQYPISLVLAPTRELAVQIYEEARKFSYRSRVRPCVVYGGADIGQQIRDLERGCHLLVATPGRLVDMMERGKIGLDFCKYLVLDEADRMLDMGFEPQIRRIVEQDTMPPKGVRHTMMFSATFPKEIQMLARDFLDEYIFLAVGRVGSTSENITQKVVWVEESDKRSFLLDLLNATGKDSLTLVFVETKKGADSLEDFLYHEGYACTSIHGDRSQRDREEALHQFRSGKSPILVATAVAARGLDISNVKHVINFDLPSDIEEYVHRIGRTGRVGNLGLATSFFNERNINITKDLLDLLVEAKQEVPSWLENMAYEHHYKGSSRGRSKSSRFSGGFGARDYRQSSGASSSSFSSSRASSSRSGGGGHGSSRGFGGGGYGGFYNSDGYGGNYNSQGVDWWGN | 2 | 4. + IFNG mix [2]: 1
